From patent US9115185

What was measured:
[1] = target: HLA-DR1 (DRB*0101), purified from B-lymphoblastic cell line LG2.1 (human); assay: competition with fluorescent HA308-319 on purified HLA-DR1
[2] = target: HLA-DR2 (DRB1*0201 [sic]), purified from B-lymphoblastic cell line IWB (human); assay: competition with fluorescent HA308-319 on purified HLA-DR2

Substance	IC50 [1]	IC50 [2]
HPV16 E2 peptide 271-300	22 µM	65 µM
HPV16 E2 peptide 286-315	8 µM	
HPV16 E2 peptide 301-330	6 µM	8 µM
HPV16 E2 peptide 316-345	6 µM	55 µM
HPV16 E2 peptide 331-365	8 µM	20 µM
